In data set [1] the target is T1, Glycylpeptide N-tetradecanoyltransferase (Saccharomyces cerevisiae S288c, UniProt P14743).
T1 sequence (P14743 whole entry): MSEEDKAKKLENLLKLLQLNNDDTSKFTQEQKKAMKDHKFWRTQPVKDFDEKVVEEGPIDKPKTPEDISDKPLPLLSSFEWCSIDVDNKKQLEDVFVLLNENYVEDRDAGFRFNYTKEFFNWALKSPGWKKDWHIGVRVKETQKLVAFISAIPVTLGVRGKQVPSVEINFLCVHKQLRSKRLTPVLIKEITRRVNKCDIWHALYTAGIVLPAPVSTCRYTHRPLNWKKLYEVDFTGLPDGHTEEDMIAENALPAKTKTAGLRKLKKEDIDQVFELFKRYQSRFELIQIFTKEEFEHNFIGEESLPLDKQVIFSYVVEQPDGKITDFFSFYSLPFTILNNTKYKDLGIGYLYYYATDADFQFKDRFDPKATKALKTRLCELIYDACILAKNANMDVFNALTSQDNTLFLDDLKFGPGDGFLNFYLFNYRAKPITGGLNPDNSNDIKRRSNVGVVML
Put plainly: Inhibition of Saccharomyces cerevisiae NMT.

Substrate in data set [2]: CC(C)C[C@H](NC(=O)CN)C(=O)N[C@@H](Cc1ccccc1)C(=O)N[C@@H](C)C(=O)N[C@@H](CO)C(=O)N[C@@H](CCCCN)C(=O)N[C@@H](CC(C)C)C(=O)N[C@@H](Cc1ccccc1)C(=O)O
The data set can be described thus: Activity of Saccharomyces cerevisiae wild type NMT assessed as production of coenzyme A after 1 hr.

Substrate in data set [3]: CC(C)C[C@H](NC(=O)CN)C(=O)N[C@@H](Cc1ccccc1)C(=O)N[C@@H](C)C(=O)N[C@@H](CO)C(=O)N[C@@H](CCCCN)C(=O)N[C@@H](CC(C)C)C(=O)N[C@@H](Cc1ccccc1)C(=O)O
The data set can be described thus: Ratio of kcat to Km for Saccharomyces cerevisiae wild type NMT.

Substrate in data set [4]: CC(C)C[C@H](NC(=O)CN)C(=O)N[C@@H](Cc1ccccc1)C(=O)N[C@@H](C)C(=O)N[C@@H](CO)C(=O)N[C@@H](CCCCN)C(=O)N[C@@H](CC(C)C)C(=O)N[C@@H](Cc1ccccc1)C(=O)O
The data set can be described thus: Activity of Saccharomyces cerevisiae NMT D108K mutant assessed as production of coenzyme A after 1 hr.

Substrate in data set [5]: CC(C)C[C@H](NC(=O)CN)C(=O)N[C@@H](Cc1ccccc1)C(=O)N[C@@H](C)C(=O)N[C@@H](CO)C(=O)N[C@@H](CCCCN)C(=O)N[C@@H](CC(C)C)C(=O)N[C@@H](Cc1ccccc1)C(=O)O
Put plainly: Ratio of kcat to Km for Saccharomyces cerevisiae NMT D108K mutant.

Substrate in data set [6]: CC(C)C[C@H](NC(=O)CN)C(=O)N[C@@H](Cc1ccccc1)C(=O)N[C@@H](C)C(=O)N[C@@H](CO)C(=O)N[C@@H](CCCCN)C(=O)N[C@@H](CC(C)C)C(=O)N[C@@H](Cc1ccccc1)C(=O)O
The data set can be described thus: Activity of Saccharomyces cerevisiae NMT D23K mutant assessed as production of coenzyme A after 1 hr.

Substrate in data set [7]: CC(C)C[C@H](NC(=O)CN)C(=O)N[C@@H](Cc1ccccc1)C(=O)N[C@@H](C)C(=O)N[C@@H](CO)C(=O)N[C@@H](CCCCN)C(=O)N[C@@H](CC(C)C)C(=O)N[C@@H](Cc1ccccc1)C(=O)O
The data set can be described thus: Ratio of kcat to Km for Saccharomyces cerevisiae NMT D23K mutant.

With `CCCCCCCCCCCCCC(=O)CSCCNC(=O)CCNC(=O)C(O)C(C)(C)COP(=O)(O)OP(=O)(O)OC[C@H]1O[C@@H](n2cnc3c(N)ncnc32)[C@H](O)[C@@H]1OP(=O)(O)O` (stereo partly specified), in data set [1], the IC50 is 50 nM.
Take `Cc1nccn1CCCCc1ccc(CC(=O)N[C@@H](CO)C(=O)N[C@@H](CCCCN)C(=O)NCCC2CCCCC2)cc1` [SC-58272]: the half-maximal inhibitory concentration (IC50) in data set [1] worked out at 24 nM.

B1: Glycylpeptide N-tetradecanoyltransferase (Saccharomyces cerevisiae S288c), P14743 (protein)
chain: MSEEDKAKKLENLLKLLQLNNDDTSKFTQEQKKAMKDHKFWRTQPVKDFDEKVVEEGPIDKPKTPEDISDKPLPLLSSFEWCSIDVDNKKQLEDVFVLLNENYVEDRDAGFRFNYTKEFFNWALKSPGWKKDWHIGVRVKETQKLVAFISAIPVTLGVRGKQVPSVEINFLCVHKQLRSKRLTPVLIKEITRRVNKCDIWHALYTAGIVLPAPVSTCRYTHRPLNWKKLYEVDFTGLPDGHTEEDMIAENALPAKTKTAGLRKLKKEDIDQVFELFKRYQSRFELIQIFTKEEFEHNFIGEESLPLDKQVIFSYVVEQPDGKITDFFSFYSLPFTILNNTKYKDLGIGYLYYYATDADFQFKDRFDPKATKALKTRLCELIYDACILAKNANMDVFNALTSQDNTLFLDDLKFGPGDGFLNFYLFNYRAKPITGGLNPDNSNDIKRRSNVGVVML
In the case of B1, in data set [2], the Km was 13.7 µM and the kcat came out at 3.06 s⁻¹. Further, the kcat/Km in data set [3] stood at 2.24 ×10⁵ /M/s.

B2: Glycylpeptide N-tetradecanoyltransferase (Saccharomyces cerevisiae S288c), P14743 D108K (protein)
chain: MSEEDKAKKLENLLKLLQLNNDDTSKFTQEQKKAMKDHKFWRTQPVKDFDEKVVEEGPIDKPKTPEDISDKPLPLLSSFEWCSIDVDNKKQLEDVFVLLNENYVEDRKAGFRFNYTKEFFNWALKSPGWKKDWHIGVRVKETQKLVAFISAIPVTLGVRGKQVPSVEINFLCVHKQLRSKRLTPVLIKEITRRVNKCDIWHALYTAGIVLPAPVSTCRYTHRPLNWKKLYEVDFTGLPDGHTEEDMIAENALPAKTKTAGLRKLKKEDIDQVFELFKRYQSRFELIQIFTKEEFEHNFIGEESLPLDKQVIFSYVVEQPDGKITDFFSFYSLPFTILNNTKYKDLGIGYLYYYATDADFQFKDRFDPKATKALKTRLCELIYDACILAKNANMDVFNALTSQDNTLFLDDLKFGPGDGFLNFYLFNYRAKPITGGLNPDNSNDIKRRSNVGVVML
For the molecule B2, in data set [4], the Km is 13.9 µM and the kcat turned out to be 1.94 s⁻¹. Also, the kcat/Km in data set [5] is 1.4 ×10⁵ /M/s.

B3: Glycylpeptide N-tetradecanoyltransferase (Saccharomyces cerevisiae S288c), P14743 D23K (protein)
chain: MSEEDKAKKLENLLKLLQLNNDKTSKFTQEQKKAMKDHKFWRTQPVKDFDEKVVEEGPIDKPKTPEDISDKPLPLLSSFEWCSIDVDNKKQLEDVFVLLNENYVEDRDAGFRFNYTKEFFNWALKSPGWKKDWHIGVRVKETQKLVAFISAIPVTLGVRGKQVPSVEINFLCVHKQLRSKRLTPVLIKEITRRVNKCDIWHALYTAGIVLPAPVSTCRYTHRPLNWKKLYEVDFTGLPDGHTEEDMIAENALPAKTKTAGLRKLKKEDIDQVFELFKRYQSRFELIQIFTKEEFEHNFIGEESLPLDKQVIFSYVVEQPDGKITDFFSFYSLPFTILNNTKYKDLGIGYLYYYATDADFQFKDRFDPKATKALKTRLCELIYDACILAKNANMDVFNALTSQDNTLFLDDLKFGPGDGFLNFYLFNYRAKPITGGLNPDNSNDIKRRSNVGVVML
Take B3: in data set [6], the Km stood at 50.2 µM and the kcat turned out to be 3.64 s⁻¹. Besides, the kcat/Km in data set [7] was found to be 7.26 ×10⁴ /M/s.

Usually IC50 stands for the concentration that gives 50% inhibition. Low values mean higher potency, high ones lower potency. As usually defined, the Km is the concentration of substrate that gives half-maximal velocity. In general, kcat refers to the number of substrate molecules converted per active site and unit of time at saturation.

The record behind these values is ChEMBL document CHEMBL1156468, “Crystal structures of Saccharomyces cerevisiae N-myristoyltransferase with bound myristoyl-CoA and inhibitors reveal the functional roles of the N-terminal region” (J Biol Chem, 2007).
